According to patent US20240209089A1:

B1: phage clone No. 55 (S7) (VHH)
VHH: QLQLVESGGGLVQPGGSLRLSCAASGSIFSINGMGWYRQAPGKQREAVAVITSGGKIDYLDSVKGRFTISRDSAKNTVALQMNSLKPEDTAVYYCNAYGDVRRGEVRWGQGTQVTVSS
B2: phage clone No. 71 (S23) (VHH)
VHH: QVQLVESGGGLVQPGGSLRLSCAASGSIFSINGMGWYRQAPGKQRELVAAITSGGKTDYLDSVKGRFTISRDSAKNTVALQMNSLKPEDTAVYYCNAYGDVQRGEVRWGQGTQVTVSS
B3: phage clone No. 29 (C29) (VHH)
VHH: QVQLVESGGGLVQAGGSLRLSCVASGFTSDDYVIGWFRQAPGKEREGVSCISSSDGTTNYADSVKGRFTISSDNAKNTVYLQMNSLKPEDTAVYYCAADPMRVCPYSGTYYGILGFGTSGQGTQVTVSS
B4: phage clone No. 54 (S6) (VHH)
VHH: QVQLVESGGGLVQPGGSLRLSCAVSGTIFSINTMGWYRQVPGKQRELVATITSSGSTKYADSVKGRFTVSRDNAKRTVFLQMDSLKPEDTAVYYCHANDVGWGTVNAWGQGTLVTVSS
B5: phage clone No. 24 (C24) (VHH)
VHH: QVQLVESGGGLVQPGGSLRLSCAASGPIFSINTMGWYRQAPGKQRELVATMHSTGSTNYADSVKGRFTISRDNAKKTVYLQMNSLKPDDTAVYYCHVDDTGWGTVDSWGQGIQVTVSS
B6: phage clone No. 30 (C30) (VHH)
VHH: QVQLVESGGGLVQPGGSLRLSCVASGSIFAINTMGWYRQAPGKQRELVADMHSTGSTNYADSVKGRFTISRDNAKKKVYLQMNSLKPDDTAVYYCHVDDRGWGTVDSWGQGTQVTVSS
B7: phage clone No. 45 (C45) (VHH)
VHH: QVQLVESGGGLVQPGGSLRLSCAASGPIFSINTMGWYRQVPGKQRELVATMHSTGSTNYADSVKGRFTISRDNAKKTVYLQMNSLKPDDTAVYYCHVDDTGWGTVDSWGQGTQVTVSS
B8: phage clone No. 70 (S22) (VHH)
VHH: QLQLVESGGGLVQPGGSLRLSCAASGSIFSINTMGWYRQAPGKQRELVATMHSTGSTNYADSVKGRFTISRDNAKKTVYLQMNSLKPDDTAVYYCHVDDMGWGTVDSWGQGTQVTVSS
B9: phage clone No. 61 (S13) (VHH)
VHH: QLQLVESGGGLVQPGGSLRLSCVVSGSIFAINTMGWYRQAPGKQRELVATMHSYGSTNYADSVKGRFTISRDNAKKTVYLQMNSLKPADTAVYYCHADDTGWGTVDSWGQGTQVTVSS
B10: phage clone No. 53 (S5) (VHH)
VHH: QVQLVESGGGLVQAGGSLRVSCAASGGTFSSTAMGWFRQAPGKEREFVAAISWSGGYTYYADSVRGRFTISRDNALNTVSLQMNSLKPEDTAVYYCAADISGLDTVAAGIFTEPNIDYWGKGTLVTVSS
B11: phage clone No. 46 (C46) (VHH)
VHH: QVQLVESGGGLVQAGGSLRLSCAASGVTFDDLAIGWFRQVPGKGREGVSTIGTSDGTAYYADSVKGRFTISSDNAKNTVYLQMNSLKPEDTAVYYCAVDLDYGLGSLLPMGYDYWGQGTQVTVSS
B12: phage clone No. 77 (S29) (VHH)
VHH: QLQLVESGGGLVQPGGSLRLSCTASGIIFSINTMGWYRQAPGKQRELVADISSFGSTNYADSVKGRFTISRDNAKNSVYLQMNSLKPEDTAVYYCNAHDKGWGTVDSWGQGTQVTVSS
B13: phage clone No. 66 (S18) (VHH)
VHH: QLQLVESGGGLVQPGGSLRLSCAASGSIFSINTMGWYRQAPGKQRELVATMTSHGSTNYADSVKGRFTISRDNSKNTVYLQMNSLKLQDTAVYYCNANDMGWGTVDAWGQGTLVTVSS
B14: phage clone No. 27 (C27) (VHH)
VHH: QLQLVESGGGLVQPGGSLRLSCVVSGSIFAINTMGWYRQAPGKQRELVATMHSGGSTNYADSVKGRFTISRDAAPKTVYLQMNSLKPADTAVYYCHADDSGWGTVDSWGQGIQVTVSS
B15: phage clone No. 20 (C20) (VHH)
VHH: QVQLVESGGGLVQPGGSLRLSCAASGSIFSINTMGWYRQAPGKQRELVATMHSTGSTNYADSVKGRFTISRDNAKKTVYLQMNSLEPDDTAVYYCHVDDTGWGTVDSWGQGTQVTVS
B16: phage clone No. 37 (C37) (VHH)
VHH: QLQLVESGGGLVQAGGSLRLSCAASGLTFEDYAIGWFRQAPGKEREGISCIRIYDGNTYSAESVKGRFTISSDNAKNQVYLQINTLKPEDTAVYYCAAGSYYSCSVYPDYDMDYWGKGTLVTVSS
B17: phage clone No. 42 (C42) (VHH)
VHH: QVQLVESGGGLVQAGGSLRLSCAASGLTFEDYAIGWFRQAPGKEREGISCIRIYDGNTYSAESVKGRFTISSDNAKNQVYLQINTLKPEDTAVYYCAAGSYYSCSVYPDYDMDYWGKGTLVTVSS
B18: phage clone No. 2 (C2) (VHH)
VHH: QVQLVESGGGLVQPGGSLRLSCAASGFTLDYYAIGWFRQAPGKEREGISCIRIYDGNTYSAESVKGRFTISSDNAKNQVYLQINTLKPEDTAVYYCAAGSYYSCSVYPDYDMDYWGKGTLVTVSS

The binders below were run against Fc protein (assay: phage ELISA on coated Fc protein).
With B1 the OD450 was 0.059. B2 was tested, and the OD450 was 0.093. Binder B3 has an OD450 of 0.115. With B4 the OD450 was 0.058. In the case of B5, the OD450 is reported as 0.083. In the case of B6, the OD450 is reported as 0.103. In the case of B7, the OD450 is reported as 0.115. In the case of B8, the OD450 is reported as 0.059. Work on B9 yielded an OD450 of 0.094. Binder B10 has an OD450 of 0.068. With B11 the OD450 was 0.081. Binder B12 has an OD450 of 0.08. With B13 the OD450 was 0.081. In the case of B14, the OD450 is reported as 0.084. For B15, the OD450 was 0.133. Work on B16 yielded an OD450 of 0.11. Binder B17 has an OD450 of 0.111. B18 showed an OD450 of 0.149.
